Patent publication US20240270839A1 (ELPISCIENCE SUZHOU BIOPHARMA, published 2024)
Values belong to the binder of their own block, whether it stands above or below them.

Assays:
[1] = target: human CLDN18.2 (hCLDN18.2), expressed on cells (human); assay: cell-based or functional assay
[2] = target: human CLDN18.2 (hCLDN18.2), expressed on cells (human); assay: cell-based or functional assay; remark: listed apart in the source
[3] = target: T1, human CLDN18.2 (hCLDN18.2), expressed on cells (human); assay: FACS, HEK293/hCLDN18.2 cells; FACS, HEK293/hCLDN18.2 cells (stable over-expression)
T1 construct: the constructs in the cell lines are not described; also called Claudin18.2; HEK293-hCLDN18.2

[4] = target: T1, human CLDN18.2 (hCLDN18.2), expressed …; assay: FACS, MFC cells over-expressing hCLDN18.2; MFC cells; first panel, run beside the hu22E12 H1 and H2 variants
[5] = target: T1, human CLDN18.2 (hCLDN18.2), expressed …; assay: FACS, MFC cells over-expressing hCLDN18.2; MFC cells; second panel, run beside the hu22E12 H3 and H4 variants
[6] = target: T1, human CLDN18.2 (hCLDN18.2), expressed …; assay: FACS, SNU620 cells (endogenous CLDN18.2); FACS, SNU620 cells (native CLDN18.2)

PBMC VS NUGC4 ADCC (EC50 nM) [1]: 25.1 nM
ADCC EC50 (nM), NK-CD16a effector cells [2]: 0.228 nM
EC50 [3]: 0.71 nM
EC50 [4]: 23.5 nM
EC50 [5]: 42.7 nM
B1: IMAB362 (Zolbetuximab) (antibody, human IgG1, kappa, V domains shown)
VH: QVQLQQPGAELVRPGASVKLSCKASGYTFTSYWINWVKQRPGQGLEWIGNIYPSDSYTNYNQKFKDKATLTVDKSSSTAYMQLSSPTSEDSAVYYCTRSWRGNSFDYWGQGTTLTVSS
VL: DIVMTQSPSSLTVTAGEKVTMSCKSSQSLLNSGNQKNYLTWYQQKPGQPPKLLIYWASTRESGVPDRFTGSGSGTDFTLTISSVQAEDLAVYYCQNDYSYPFTFGSGTKLEIKR

EC50 [6]: 3.5 nM
EC50 [3]: 0.81 nM
B2: 60F11 (antibody, V domains shown)
VH: QVQLQQPGAELVKPGASVKLSCKASGYTFTSYWMHWVKQRPGQGLEWIGMIHPNSGSTNYNEKFKSKATLTVDKSSSTAYMQLSSLTSEDSAVYYCARMGLGNAMDYWGQGTSVTVSS
VL: DIVMTQSPSSLTVTAGEKVTLSCKSSQSLLNSGNQRNYLTWYQQKPGQPPKLLIYWASTRESGVPDRFTGSGSGTDFTLTISSVQAEDLAVYYCQNAYSYPLTFGAGTKLELK
notes: mouse hybridoma antibody, purified; also called clone 60F11
